For experiment [1], the target named is human folate receptor 1 (folate receptor alpha, FRα) on T47D cells (human) (UniProt P15328). Kind of experiment: flow cytometry on T47D cells, FITC anti-human IgG Fcγ detection; control run with M-10. In general terms: A flow cytometer gives signals particle by particle.
For experiment [2] the target is unchanged. Kind of experiment: flow cytometry on T47D cells, FITC anti-human IgG Fcγ detection; control run with M-160.
Experiment [3] shares this target. In words: flow cytometry on T47D cells, FITC anti-human IgG Fcγ detection; control run with M-166.
The target is the same in experiment [4]. In words: flow cytometry on T47D cells, FITC anti-human IgG Fcγ detection; control run with M-sSPDB-17.
Experiment [5] shares this target. Kind of experiment: flow cytometry on T47D cells, FITC anti-human IgG Fcγ detection; control run with M-sSPDB-30.
Experiment [6] shares this target. In words: flow cytometry on T47D cells, FITC anti-human IgG Fcγ detection; control run with M-sSPDB-87.
Experiment [7] shares this target. Kind of experiment: flow cytometry on T47D cells, FITC anti-human IgG Fcγ detection; control run with M-sSPDB-109.
Experiment [8] shares this target. In words: flow cytometry on T47D cells, FITC anti-human IgG Fcγ detection; control run with M-sSPDB-127.

We go through 1 molecule from patent publication US20200397914A1.

Chain of human folate receptor 1 (folate receptor alpha, FRα) on T47D cells (human) (P15328 25-234, stated change not applied): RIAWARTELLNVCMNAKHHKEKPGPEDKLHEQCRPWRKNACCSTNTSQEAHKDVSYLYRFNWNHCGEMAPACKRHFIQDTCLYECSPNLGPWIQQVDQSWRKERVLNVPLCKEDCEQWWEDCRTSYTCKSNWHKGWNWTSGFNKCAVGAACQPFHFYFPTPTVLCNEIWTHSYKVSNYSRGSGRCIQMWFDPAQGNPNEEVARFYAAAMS

B1: huMov19 antibody (unconjugated) (antibody, from a related filing, V domains shown)
VH: QVQLVQSGAEVVKPGASVKISCKASGYTFTGYFMNWVKQSPGQSLEWIGRIHPYDGDTFYNQKFQGKATLTVDKSSNTAHMELLSLTSEDFAVYYCTRYDGSRAMDYWGQGTTVTVSS
VL: DIVLTQSPLSLAVSLGQPAIISCKASQSVSFAGTSLMHWYHQKPGQQPRLLIYRASNLEAGVPDRFSGSGSKTDFTLTISPVEAEDAATYYCQQSREYPYTFGGGTKLEIKR
Consider B1, for which the EC50 (in general, the midpoint of the concentration-response curve) in experiment [1] was 0.3 nM; in experiment [2], 0.2 nM; in experiment [3], 0.2 nM; in experiment [4], 0.2 nM; in experiment [5] it was 0.2 nM; in experiment [6], 0.2 nM. The EC50 in experiment [7] and in experiment [8] was 0.2 nM in each case.
